Assay results taken from US8529906B2, “Compositions for inducing immune responses” (Novartis Vaccines and Diagnostics, Inc., priority 2003, dated 2013).
“Also recorded” adds a separate entry of the source.

Test system: EG7 (EL4 transfected with ovalbumin) and EL4 target cells
Assay: CTL activity (51Cr release cytotoxic cell assay) of spleen cells from mice immunized with OVA formulations
Assay type: in vivo
Conditions: subcutaneous, dose 10 μg, boosted at 14 and 28 days; for CTL activity relative to the other OVA formulations: comparison in words; for CTL response: percent specific 51Cr release
Experimental: Ovalbumin, PLG/OVA-entrapped particles, small OVA-protein particles (250 nm) and large OVA-protein particles (2500 nm), produced as described above, were administered subcutaneously to mice (dose=10 μg). The animals were boosted at 14 and 28 days. […] two weeks following the last immunization and CTL activity assayed as described in Doe et al., Proc. Natl. Acad. Sci. (1996) 93:8578-8583.
Lymphocyte cultures were prepared as follows. Spleen cells (sc) from immunized mice were cultured in 24-well dishes at 5×10^6 cells per well. Of those cells, 1×10^6 were sensitized with synthetic epitopic peptides from EG7 (EL4 transfected with ovalbumin) and EL4 proteins at a concentration of 10 μM for 1 hour at 37° C., washed, and cocultured with the remaining 4×10^6 untreated sc in 2 ml of culture medium [50% RPMI 1640 and 50% alpha-MEM (GIBCO)] supplemented with heat-inactivated fetal serum, 5×10^−5 M 2-mercaptoethanol, antibiotics, and 5% interleukin-2 (Rat T-Stim, Collaborative Biomedical Products, Bedford, Mass.). Cells were fed with 1 ml of fresh culture medium on days 3 and 5, and cytotoxicity was assayed on day 6.
The cytotoxic cell assay was conducted as follows. EG7 (EL4 transfected with ovalbumin) and EL4 target cells used in the ^51Cr release assays express class I but not class II MHC molecules. Approximately 1×10^6 target cells were incubated in 200 μl of medium containing 50 μCi (1 Ci=37 Gbq) of ^51Cr and synthetic Ovalbumin peptides (1 μm) for 60 min and washed three times. Effector (E) cells were cultured with 5×10^3 target (T) cells at various EST ratios in 200 μl of culture medium in 96-well round-bottom tissue culture plates for 4 hours. The average cpm from duplicate wells was used to calculate percent specific ^51Cr release.

Row | Molecule | CTL activity relative to the other OVA formulations | CTL response
1 | small OVA-protein particles: Heat-stabilized ovalbumin protein particles formed by acetone coacervation, about 250 nm in diameter (protein, UniProt P01012 2-386, looked up, heat-stabilized particles, Heat-stabilized ovalbumin protein particles formed by acetone coacervation, about 250 nm in diameter) Ovalbumin: GSIGAASMEFCFDVFKELKVHHANENIFYCPIAIMSALAMVYLGAKDSTRTQINKVVRFDKLPGFGDSIEAQCGTSVNVHSSLRDILNQITKPNDVYSFSLASRLYAEERYPILPEYLQCVKELYRGGLEPINFQTAADQARELINSWVESQTNGIIRNVLQPSSVDSQTAMVLVNAIVFKGLWEKAFKDEDTQAMPFRVTEQESKPVQMMYQIGLFRVASMASEKMKILELPFASGTMSMLVLLPDEVSGLEQLESIINFEKLTEWTSSNVMEERKIKVYLPRMKMEEKYNLTSVLMAMGITDVFSSSANLSGISSAESLKISQAVHAAHAEINEAGREVVGSAEAGVDAASVSEEFRADHPFLFCIKHIATNAVLFFGRCVSP | activity comparable to the large OVA-protein particles; also recorded: more active, e.g., elicited a greater immune response than the PLG/OVA-entrapped particles and ovalbumin alone formulations | elicited a CTL response
2 | large OVA-protein particles: Heat-stabilized ovalbumin protein particles formed by acetone coacervation, about 2.5 μm in diameter (protein, UniProt P01012 2-386, looked up, heat-stabilized particles, Heat-stabilized ovalbumin protein particles formed by acetone coacervation, about 2.5 μm in diameter) Ovalbumin: GSIGAASMEFCFDVFKELKVHHANENIFYCPIAIMSALAMVYLGAKDSTRTQINKVVRFDKLPGFGDSIEAQCGTSVNVHSSLRDILNQITKPNDVYSFSLASRLYAEERYPILPEYLQCVKELYRGGLEPINFQTAADQARELINSWVESQTNGIIRNVLQPSSVDSQTAMVLVNAIVFKGLWEKAFKDEDTQAMPFRVTEQESKPVQMMYQIGLFRVASMASEKMKILELPFASGTMSMLVLLPDEVSGLEQLESIINFEKLTEWTSSNVMEERKIKVYLPRMKMEEKYNLTSVLMAMGITDVFSSSANLSGISSAESLKISQAVHAAHAEINEAGREVVGSAEAGVDAASVSEEFRADHPFLFCIKHIATNAVLFFGRCVSP | more active, e.g., elicited a greater immune response than the PLG/OVA-entrapped particles and ovalbumin alone formulations | elicited a CTL response
